In test [1] the target is human CD4 C-terminally fused to the C-terminal fragment of click beetle green (UniProt P01730). Kind of test: click beetle luciferase complementation assay in living 293T cells. As to conditions: read off a plot.
The target in test [2] is ß-TrCP N-terminally fused to the C-terminal fragment of click beetle green (UniProt Q9Y297). The test is described as above. As to conditions: 36 h after transfection, equal amounts of plasmids, D-Luciferin added, read off a plot.
Test [3] concerns the target human CD4 C-terminally fused to the C-terminal fragment of click beetle green (UniProt P01730).
The mark [4] stands for this setting: + ß-TrCPΔF cotransfected (grey bars), parent: est. 20.
Setting [5] is: without ß-TrCPΔF (coloured bars), parent: est. 8.
Setting [6] is: + ß-TrCPΔF cotransfected (grey bars), parent: est. 14.
Where [7] appears, read: without ß-TrCPΔF (coloured bars), parent: est. 13.

Sequence of UniProt Q9Y297 (Q9Y297 whole entry, the tested form may be a part): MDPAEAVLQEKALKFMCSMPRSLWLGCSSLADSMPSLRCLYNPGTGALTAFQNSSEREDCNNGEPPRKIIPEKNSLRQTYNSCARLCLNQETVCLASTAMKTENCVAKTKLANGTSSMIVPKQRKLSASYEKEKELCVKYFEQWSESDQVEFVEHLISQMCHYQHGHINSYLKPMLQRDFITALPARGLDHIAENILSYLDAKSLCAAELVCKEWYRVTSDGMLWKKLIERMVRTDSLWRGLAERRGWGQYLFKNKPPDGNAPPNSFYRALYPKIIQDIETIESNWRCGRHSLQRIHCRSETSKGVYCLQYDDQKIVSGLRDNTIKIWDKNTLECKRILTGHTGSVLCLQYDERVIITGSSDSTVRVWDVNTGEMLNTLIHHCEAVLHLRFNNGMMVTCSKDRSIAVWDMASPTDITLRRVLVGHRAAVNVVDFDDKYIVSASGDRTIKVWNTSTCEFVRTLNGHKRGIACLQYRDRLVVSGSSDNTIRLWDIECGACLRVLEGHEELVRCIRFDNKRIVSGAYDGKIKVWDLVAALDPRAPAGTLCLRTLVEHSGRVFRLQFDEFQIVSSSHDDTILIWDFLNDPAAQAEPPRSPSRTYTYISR

Consider “HIV-1 group M NL4-3 Vpu C-terminally fused to the N-terminal fragment of click beetle green G53D”, for which the response (RLU/s x 1.000) turned out to be 22 in test [1] (setting [4]), 30 in test [1] (setting [5]) and 2.2 in test [2] (parent: est. 6.2).
In the case of “HIV-1 group M NL4-3 Vpu C-terminally fused to the N-terminal fragment of click beetle green S52A; S56A”, the results for the response (RLU/s x 1.000) in test [1] (setting [4]), in test [1] (setting [5]) and in test [2] (parent: est. 6.2) were 24, 29 and 2.2, respectively.
In the case of “HIV-1 group N DJO0131 Vpu C-terminally fused to the N-terminal fragment of click beetle green (natural protein)”, the reduction in CD4 cell surface expression (293T cells, flow cytometry) in test [3] is 2.8 fold.
Take “HIV-1 group N YBF30 Vpu C-terminally fused to the N-terminal fragment of click beetle green (from UniProt O91085) G51D”: the response (RLU/s x 1.000) is 12 in test [1] (setting [6]), 18 in test [1] (setting [7]) and 1.3 in test [2] (parent: est. 4.7).
In the case of “HIV-1 group N YBF30 Vpu C-terminally fused to the N-terminal fragment of click beetle green (from UniProt O91085) S52A; S56A”, the response (RLU/s x 1.000) was 19 in test [1] (setting [6]), 17 in test [1] (setting [7]) and 0.9 in test [2] (parent: est. 4.7).

The values are drawn from article PMC3534379.
